T1: Human his-tag IL-7Ra protein (human, UniProt P16871 21-239)
T1 construct: Construct not described; Position of the tag unknown; also called IL-7Ra (Biacore analyte); not shown: his tag
T1 sequence: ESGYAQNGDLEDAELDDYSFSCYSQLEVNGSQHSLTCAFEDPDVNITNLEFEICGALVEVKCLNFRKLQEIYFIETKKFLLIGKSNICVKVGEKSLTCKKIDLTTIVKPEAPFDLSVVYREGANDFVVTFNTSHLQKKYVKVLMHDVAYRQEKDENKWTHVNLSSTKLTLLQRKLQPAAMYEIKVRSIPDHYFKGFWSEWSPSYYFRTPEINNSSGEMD

T2: cynomolgus IL-7Ra expressed on CHOK1-cyno IL-7Ra cells (cynomolgus, UniProt Q38IC7 21-459)
T2 sequence: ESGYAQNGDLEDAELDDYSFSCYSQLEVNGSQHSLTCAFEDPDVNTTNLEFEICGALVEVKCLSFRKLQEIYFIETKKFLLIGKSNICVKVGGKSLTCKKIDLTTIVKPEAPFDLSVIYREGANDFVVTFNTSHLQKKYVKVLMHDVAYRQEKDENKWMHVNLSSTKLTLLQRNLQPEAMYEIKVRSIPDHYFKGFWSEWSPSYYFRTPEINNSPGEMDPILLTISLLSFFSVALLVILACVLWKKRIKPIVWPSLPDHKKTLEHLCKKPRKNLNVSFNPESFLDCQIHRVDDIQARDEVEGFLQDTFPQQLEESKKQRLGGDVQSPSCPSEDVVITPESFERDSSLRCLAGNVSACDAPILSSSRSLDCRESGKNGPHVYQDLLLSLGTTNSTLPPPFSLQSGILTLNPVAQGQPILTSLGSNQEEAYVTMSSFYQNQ

T3: human IL-7Ra expressed on CHOK1-human IL-7Ra cells (human, UniProt P16871 21-459)
T3 construct: also called human IL-7Ra expressed on cell membrane; CD127
T3 sequence: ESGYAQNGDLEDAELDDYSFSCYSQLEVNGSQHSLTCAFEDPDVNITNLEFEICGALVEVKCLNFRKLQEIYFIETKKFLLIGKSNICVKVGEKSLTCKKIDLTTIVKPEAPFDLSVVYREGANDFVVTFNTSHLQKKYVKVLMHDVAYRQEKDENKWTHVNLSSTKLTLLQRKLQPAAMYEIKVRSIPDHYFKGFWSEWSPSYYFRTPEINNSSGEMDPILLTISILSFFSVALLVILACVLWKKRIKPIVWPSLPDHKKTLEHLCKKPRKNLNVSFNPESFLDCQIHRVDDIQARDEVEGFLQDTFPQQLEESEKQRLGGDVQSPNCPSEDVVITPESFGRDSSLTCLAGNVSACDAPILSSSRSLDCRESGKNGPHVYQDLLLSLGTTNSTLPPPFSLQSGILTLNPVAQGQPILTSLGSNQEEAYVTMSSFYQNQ


Key:
[1] = molecular target: T1, Human his-tag IL-7Ra protein; assay: SPR Biacore 8K, antibody Fc-captured, human his-tag IL-7Ra analyte, 1:1 model
[2] = molecular target: T2, cynomolgus IL-7Ra expressed on …; assay: flow cytometry, CHOK1-cyno IL-7Ra cells
[3] = molecular target: T3, human IL-7Ra expressed on CHOK1-human …; assay: flow cytometry, CHOK1-human IL-7Ra cells

Binder	Kd [1]	koff [1]	kon [1]	EC50 [2]	Top (MFI) [2]	EC50 [3]	Top (MFI) [3]
HuAb005 (antibody, V domains shown, Humanized version of cmAb011; also called humanized VL1 / humanized VH2) VH: QVQLVQSGAEVKKPGASVKVSCKASGYRFTDYELHWVRQAPGQGLEWMGGIDPKTGGTAYNQKFKGRVTMTSDRSTSTVYMELSSLRSEDTAVYYCARSGGRWYFDVWGQGTTVTVSS VL: DIVLTQSPASLAVSPGQRATITCRTSESVSIHLLHLMHWYQQKPGQPPKLLIYGASNLESGVPARFSGSGSGTDFTLTINPVEAEDTANYYCQQSIKDPYTFGGGTKVEIK	0.214 nM	0.000238 s⁻¹	1.11e+06 M⁻¹ s⁻¹	0.207 µg/mL	16900 MFI	0.188 µg/mL	22300 MFI
HuAb019 (antibody, V domains shown, Humanized version of cmAb011; also called humanized VL3 / humanized VH5) VH: QVQLVQSGAEVKKPGASVKVSCKASGYRFTDYELHWVKQAPGQGLEWIGGIDPKTGGTAYNQKFKGKVTLTSDRSTSTVYMELSSLRSEDTAVYYCARSGGRWYFDVWGQGTTVTVSS VL: DIVMTQSPDSLAVSLGERATINCRTSESVSIHLLHLMHWYQQKPGQPPKLLIYGASNLESGVPDRFSGSGSGTDFTLTISSLQAEDVAVYYCQQSIKDPYTFGGGTKVEIK	–	–	–	0.687 µg/mL	18000 MFI	0.536 µg/mL	22800 MFI
HuAb015 (antibody, V domains shown, Humanized version of cmAb011; also called humanized VL3 / humanized VH4) VH: QVQLVQSGAEVKKPGASVKVSCKASGYRFTDYELHWVRQAPGQGLEWMGGIDPKTGGTAYNQKFKGKVTLTSDRSTSTVYMELSSLRSEDTAVYYCARSGGRWYFDVWGQGTTVTVSS VL: DIVMTQSPDSLAVSLGERATINCRTSESVSIHLLHLMHWYQQKPGQPPKLLIYGASNLESGVPDRFSGSGSGTDFTLTISSLQAEDVAVYYCQQSIKDPYTFGGGTKVEIK	–	–	–	0.189 µg/mL	17400 MFI	0.158 µg/mL	24100 MFI
HuAb011 (antibody, V domains shown, Humanized version of cmAb011; also called humanized VL3 / humanized VH3) VH: QVQLVQSGAEVKKPGASVKVSCKASGYRFTDYELHWVKQAPGQGLEWIGGIDPKTGGTAYNQKFKGRVTMTSDRSTSTVYMELSSLRSEDTAVYYCARSGGRWYFDVWGQGTTVTVSS VL: DIVMTQSPDSLAVSLGERATINCRTSESVSIHLLHLMHWYQQKPGQPPKLLIYGASNLESGVPDRFSGSGSGTDFTLTISSLQAEDVAVYYCQQSIKDPYTFGGGTKVEIK	–	–	–	0.241 µg/mL	17700 MFI	0.256 µg/mL	20500 MFI
HuAb017 (antibody, V domains shown, Humanized version of cmAb011; also called humanized VL1 / humanized VH5) VH: QVQLVQSGAEVKKPGASVKVSCKASGYRFTDYELHWVKQAPGQGLEWIGGIDPKTGGTAYNQKFKGKVTLTSDRSTSTVYMELSSLRSEDTAVYYCARSGGRWYFDVWGQGTTVTVSS VL: DIVLTQSPASLAVSPGQRATITCRTSESVSIHLLHLMHWYQQKPGQPPKLLIYGASNLESGVPARFSGSGSGTDFTLTINPVEAEDTANYYCQQSIKDPYTFGGGTKVEIK	–	–	–	0.0891 µg/mL	17700 MFI	0.0778 µg/mL	24600 MFI
HuAb006 (antibody, V domains shown, Humanized version of cmAb011; also called humanized VL2 / humanized VH2) VH: QVQLVQSGAEVKKPGASVKVSCKASGYRFTDYELHWVRQAPGQGLEWMGGIDPKTGGTAYNQKFKGRVTMTSDRSTSTVYMELSSLRSEDTAVYYCARSGGRWYFDVWGQGTTVTVSS VL: DIVLTQSPASLAVSPGQRATITCRTSESVSIHLLHLMHWYQQKPGQPPKLLIYGASNLESGVPARFSGSGSETDFTLTINPVEAEDTANYYCQQSIKDPYTFGGGTKVEIK	–	–	–	0.191 µg/mL	16700 MFI	0.177 µg/mL	21600 MFI
HuAb002 (antibody, V domains shown, Humanized version of cmAb011; also called humanized VL2 / humanized VH1) VH: QVQLVQSGAEVKKPGASVKVSCKASGYRFTDYELHWVRQAPGQGLEWMGGIDPKTGGTAYNQKFKGRVTMTRDTSTSTVYMELSSLRSEDTAVYYCARSGGRWYFDVWGQGTTVTVSS VL: DIVLTQSPASLAVSPGQRATITCRTSESVSIHLLHLMHWYQQKPGQPPKLLIYGASNLESGVPARFSGSGSETDFTLTINPVEAEDTANYYCQQSIKDPYTFGGGTKVEIK	–	–	–	0.126 µg/mL	15900 MFI	0.115 µg/mL	22600 MFI
HuAb018 (antibody, V domains shown, Humanized version of cmAb011; also called humanized VL2 / humanized VH5) VH: QVQLVQSGAEVKKPGASVKVSCKASGYRFTDYELHWVKQAPGQGLEWIGGIDPKTGGTAYNQKFKGKVTLTSDRSTSTVYMELSSLRSEDTAVYYCARSGGRWYFDVWGQGTTVTVSS VL: DIVLTQSPASLAVSPGQRATITCRTSESVSIHLLHLMHWYQQKPGQPPKLLIYGASNLESGVPARFSGSGSETDFTLTINPVEAEDTANYYCQQSIKDPYTFGGGTKVEIK	–	–	–	0.0988 µg/mL	18400 MFI	0.105 µg/mL	24100 MFI
HuAb001 (antibody, V domains shown, Humanized version of cmAb011; also called humanized VL1 / humanized VH1) VH: QVQLVQSGAEVKKPGASVKVSCKASGYRFTDYELHWVRQAPGQGLEWMGGIDPKTGGTAYNQKFKGRVTMTRDTSTSTVYMELSSLRSEDTAVYYCARSGGRWYFDVWGQGTTVTVSS VL: DIVLTQSPASLAVSPGQRATITCRTSESVSIHLLHLMHWYQQKPGQPPKLLIYGASNLESGVPARFSGSGSGTDFTLTINPVEAEDTANYYCQQSIKDPYTFGGGTKVEIK	–	–	–	0.167 µg/mL	16000 MFI	0.17 µg/mL	22300 MFI

Continued, values first:

Kd [1]	koff [1]	kon [1]	EC50 [2]	Top (MFI) [2]	EC50 [3]	Top (MFI) [3]	Binder
–	–	–	0.165 µg/mL	17000 MFI	0.159 µg/mL	20300 MFI	HuAb012 (antibody, V domains shown, Humanized version of cmAb011; also called humanized VL4 / humanized VH3) VH: QVQLVQSGAEVKKPGASVKVSCKASGYRFTDYELHWVKQAPGQGLEWIGGIDPKTGGTAYNQKFKGRVTMTSDRSTSTVYMELSSLRSEDTAVYYCARSGGRWYFDVWGQGTTVTVSS VL: DIVLTQSPDSLAVSLGERATINCRTSESVSIHLLHLMHWYQQKPGQPPKLLIYGASNLESGVPDRFSGSGSETDFTLTISSLQAEDVAVYYCQQSIKDPYTFGGGTKVEIK
–	–	–	0.124 µg/mL	17600 MFI	0.115 µg/mL	22500 MFI	HuAb020 (antibody, V domains shown, Humanized version of cmAb011; also called humanized VL4 / humanized VH5) VH: QVQLVQSGAEVKKPGASVKVSCKASGYRFTDYELHWVKQAPGQGLEWIGGIDPKTGGTAYNQKFKGKVTLTSDRSTSTVYMELSSLRSEDTAVYYCARSGGRWYFDVWGQGTTVTVSS VL: DIVLTQSPDSLAVSLGERATINCRTSESVSIHLLHLMHWYQQKPGQPPKLLIYGASNLESGVPDRFSGSGSETDFTLTISSLQAEDVAVYYCQQSIKDPYTFGGGTKVEIK
–	–	–	0.128 µg/mL	17100 MFI	0.113 µg/mL	23700 MFI	HuAb016 (antibody, V domains shown, Humanized version of cmAb011; also called humanized VL4 / humanized VH4) VH: QVQLVQSGAEVKKPGASVKVSCKASGYRFTDYELHWVRQAPGQGLEWMGGIDPKTGGTAYNQKFKGKVTLTSDRSTSTVYMELSSLRSEDTAVYYCARSGGRWYFDVWGQGTTVTVSS VL: DIVLTQSPDSLAVSLGERATINCRTSESVSIHLLHLMHWYQQKPGQPPKLLIYGASNLESGVPDRFSGSGSETDFTLTISSLQAEDVAVYYCQQSIKDPYTFGGGTKVEIK
–	–	–	0.175 µg/mL	17500 MFI	0.152 µg/mL	20600 MFI	HuAb010 (antibody, V domains shown, Humanized version of cmAb011; also called humanized VL2 / humanized VH3) VH: QVQLVQSGAEVKKPGASVKVSCKASGYRFTDYELHWVKQAPGQGLEWIGGIDPKTGGTAYNQKFKGRVTMTSDRSTSTVYMELSSLRSEDTAVYYCARSGGRWYFDVWGQGTTVTVSS VL: DIVLTQSPASLAVSPGQRATITCRTSESVSIHLLHLMHWYQQKPGQPPKLLIYGASNLESGVPARFSGSGSETDFTLTINPVEAEDTANYYCQQSIKDPYTFGGGTKVEIK
–	–	–	0.244 µg/mL	17100 MFI	0.209 µg/mL	21100 MFI	HuAb007 (antibody, V domains shown, Humanized version of cmAb011; also called humanized VL3 / humanized VH2) VH: QVQLVQSGAEVKKPGASVKVSCKASGYRFTDYELHWVRQAPGQGLEWMGGIDPKTGGTAYNQKFKGRVTMTSDRSTSTVYMELSSLRSEDTAVYYCARSGGRWYFDVWGQGTTVTVSS VL: DIVMTQSPDSLAVSLGERATINCRTSESVSIHLLHLMHWYQQKPGQPPKLLIYGASNLESGVPDRFSGSGSGTDFTLTISSLQAEDVAVYYCQQSIKDPYTFGGGTKVEIK
–	–	–	0.0534 µg/mL	16700 MFI	0.0529 µg/mL	23900 MFI	HuAb014 (antibody, V domains shown, Humanized version of cmAb011; also called humanized VL2 / humanized VH4) VH: QVQLVQSGAEVKKPGASVKVSCKASGYRFTDYELHWVRQAPGQGLEWMGGIDPKTGGTAYNQKFKGKVTLTSDRSTSTVYMELSSLRSEDTAVYYCARSGGRWYFDVWGQGTTVTVSS VL: DIVLTQSPASLAVSPGQRATITCRTSESVSIHLLHLMHWYQQKPGQPPKLLIYGASNLESGVPARFSGSGSETDFTLTINPVEAEDTANYYCQQSIKDPYTFGGGTKVEIK

Reference: US20260250402A1 (C O INMAGENE PTE, published 2026)
